Experimental findings from US6077680A (The University of Florida, dated 2000) are described below.

Data set [1] concerns the target cloned Kv1.1 channel.
The target of data set [2] is small conductance calcium-activated potassium channel in T-cells. The data set is described as follows: block of channel in T-cells.
For data set [3], the target named is cloned Kv1.2 channel. The data set is described as follows: block of cloned channel.
For data set [4], the target named is rat brain membrane K channels (delayed rectifier, primarily Kv1.2) (rat) (UniProt P63142).
Data set [5] deals with cloned Kv1.5 channel. The data set is described as follows: whole-cell patch clamp block, cell line stably expressing the channel. For orientation: Patch clamp records ionic current or voltage across a cell membrane.
In data set [6] the target is cloned Kv1.2 channel. The description is as above.
Data set [7] has as its target cloned Kv1.3 channel, wild type. The description is as above.
Data set [8] deals with cloned Kv1.1 channel. The data set is described as above.
The target in data set [9] is cloned Kv3.1 channel. The description is as above.
Data set [10] has as its target cloned Kv1.3 channel, wild type.
For data set [11], the target named is cloned Kv1.1 channel. The source holds these as a separate data set.
Data set [12] deals with cloned Kv1.3 channel, wild type. The source holds these as a separate data set.
For data set [13], the target named is cloned Kv1.1 channel. This is another data set of the same source.
Another data set concerns the target Kv1.5 (Homo sapiens, UniProt P22460). Type of data set: cell-based.
The target in data set [14] is Kv1.3 channels in Jurkat T lymphocytes (Homo sapiens, UniProt P22001). The class given is binding.
Chain of Kv1.3 channels in Jurkat T lymphocytes (P22001 whole entry): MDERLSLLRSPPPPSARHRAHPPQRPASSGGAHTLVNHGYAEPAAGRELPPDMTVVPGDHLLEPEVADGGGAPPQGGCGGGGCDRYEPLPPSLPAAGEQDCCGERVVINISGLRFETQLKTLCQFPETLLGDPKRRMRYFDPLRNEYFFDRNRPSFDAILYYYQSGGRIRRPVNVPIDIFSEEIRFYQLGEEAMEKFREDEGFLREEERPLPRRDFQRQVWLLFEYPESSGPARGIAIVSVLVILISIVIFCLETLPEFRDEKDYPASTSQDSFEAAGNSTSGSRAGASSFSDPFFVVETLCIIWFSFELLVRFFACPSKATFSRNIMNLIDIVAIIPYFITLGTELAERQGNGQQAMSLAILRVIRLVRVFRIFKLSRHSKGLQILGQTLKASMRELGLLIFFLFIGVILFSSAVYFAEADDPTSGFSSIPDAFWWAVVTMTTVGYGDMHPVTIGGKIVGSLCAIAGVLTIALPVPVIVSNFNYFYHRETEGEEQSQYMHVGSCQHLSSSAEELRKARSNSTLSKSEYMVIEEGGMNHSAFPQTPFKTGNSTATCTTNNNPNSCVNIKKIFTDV
Data set [15] deals with T1, Kv1.3 (Mus musculus, UniProt P16390). Type of data set: cell-based.
T1 sequence (P16390 whole entry): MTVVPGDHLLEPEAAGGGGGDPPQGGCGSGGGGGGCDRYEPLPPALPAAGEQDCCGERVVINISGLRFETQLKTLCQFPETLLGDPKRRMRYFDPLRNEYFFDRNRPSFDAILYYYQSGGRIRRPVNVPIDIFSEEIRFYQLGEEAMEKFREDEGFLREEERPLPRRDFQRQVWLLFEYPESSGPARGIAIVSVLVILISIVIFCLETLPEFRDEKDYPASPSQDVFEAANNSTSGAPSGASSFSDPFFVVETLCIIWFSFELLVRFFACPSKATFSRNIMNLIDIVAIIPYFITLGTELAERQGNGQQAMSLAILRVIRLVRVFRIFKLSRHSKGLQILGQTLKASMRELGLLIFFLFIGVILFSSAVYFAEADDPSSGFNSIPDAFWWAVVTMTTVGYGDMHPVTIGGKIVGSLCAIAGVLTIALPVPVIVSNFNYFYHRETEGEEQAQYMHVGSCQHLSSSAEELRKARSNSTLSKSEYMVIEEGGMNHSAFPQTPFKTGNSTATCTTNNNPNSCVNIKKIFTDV
The subject of data set [16] is rat brain membrane K channels (primarily Kv1.2). The class given is binding.
Data set [17] deals with pepsin A, pancreatic elastase, subtilisin, trypsin-chymotrypsin, thermolysin.
The subject of data set [18] is Kv1.1, Kv1.2, Kv1.5, Kv3.1, hKCa4 relative to Kv1.3. The class given is cell-based.
In data set [19] the target is T1, Kv1.3. Nature of the data set: cell-based. Type of data set: cell-based.
Another data set deals with Kv1.2 (Rattus norvegicus, UniProt P63142). The class given is cell-based.
Chain of Kv1.2 (P63142 whole entry): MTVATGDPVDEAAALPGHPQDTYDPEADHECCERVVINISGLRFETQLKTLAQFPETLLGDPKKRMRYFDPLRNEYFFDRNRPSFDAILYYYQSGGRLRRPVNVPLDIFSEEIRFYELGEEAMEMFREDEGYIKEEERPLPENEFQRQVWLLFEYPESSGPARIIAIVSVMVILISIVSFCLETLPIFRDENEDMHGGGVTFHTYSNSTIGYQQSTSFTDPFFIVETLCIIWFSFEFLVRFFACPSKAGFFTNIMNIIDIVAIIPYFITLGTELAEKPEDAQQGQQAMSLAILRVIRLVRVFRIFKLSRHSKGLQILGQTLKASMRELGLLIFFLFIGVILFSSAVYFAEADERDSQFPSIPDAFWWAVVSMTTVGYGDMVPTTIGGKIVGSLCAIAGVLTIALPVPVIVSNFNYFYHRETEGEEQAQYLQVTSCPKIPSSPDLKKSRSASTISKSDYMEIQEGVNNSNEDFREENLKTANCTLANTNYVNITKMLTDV
Another data set addresses IKCa (hKCa4) (Homo sapiens, UniProt O15554). Type of data set: cell-based.
Another data set addresses Kv3.1 (Mus musculus, UniProt P15388). Type of data set: cell-based.
Data set [20] has as its target cloned Kv1.3 channel, wild type. The source holds these as a separate data set.
Data set [21] shares this target. The data set is described as follows: patch clamp block of Kv1.3.
The target is the same in data set [22]. This is another data set of the same source.
Data set [23] shares this target. The data set is described as follows: block of cloned channel.
Data set [24] deals with cloned Kv1.1 channel. The data set is described as follows: block of cloned channel.
Data set [25] has as its target cloned Kv1.5 channel. The data set is described as follows: patch clamp block of cloned channel.
Data set [26] deals with cloned Kv3.1 channel. The data set is described as follows: patch clamp block of cloned channel.
The target in data set [27] is IKCa channel of activated human T-cells (human) (UniProt O15554). Nature of the data set: whole-cell patch clamp block, activated human T-cells; called Kd in paragraph 470.
Data set [28] addresses rat brain membrane K channels (delayed rectifier, primarily Kv1.2) (rat) (UniProt P63142). The source holds these as a separate data set.
The target is the same in data set [29]. This is another data set of the same source.
In data set [30] the target is cloned Kv1.2 channel.
Data set [31] has as its target cloned Kv1.3 channel, wild type. The source holds these as a separate data set.
Data set [32] shares this target. This is another data set of the same source.
In data set [33] the target is cloned Kv1.2 channel. This is another data set of the same source.
The target in data set [34] is cloned Kv1.3 channel, wild type. The source holds these as a separate data set.
Data set [35] addresses rat brain membrane K channels (delayed rectifier, primarily Kv1.2) (rat) (UniProt P63142). Nature of the data set: IC50 ratio on brain delayed rectifier K channels (table title); assay not given.
Data set [36] deals with Kv1.3 channel printed as G30. Nature of the data set: electrophysiological block of current; Kd from fraction of unblocked current.
The next data set addresses Kv1.3 D386K. The data set is described as above.
In a further data set the target is Kv1.3 H404Y. The description is as above.
The target in another data set is Kv1.3 D386N. Described as above.
The target in another data set is Kv1.3 H404T. Described as above.
The next data set concerns the target Kv1.3 H404L. The data set is described as above.
Another data set addresses Kv1.3 G380E. The data set is described as above.
Another data set deals with Kv1.3(D386→K). Type of data set: cell-based.
Data set [37] has as its target Kv1.3 potassium channels in Jurkat T lymphocytes (Homo sapiens, UniProt P22001). The class given is cell-based.
Data set [38] concerns the target T2, rat brain membrane K channels (delayed rectifier, primarily Kv1.2) (rat, UniProt P63142). Nature of the data set: IC50 ratio on brain delayed rectifier K channels (table title); assay not given.
Data set [39] has as its target T2, rat brain membrane K channels (delayed …). The data set is described as follows: 125I-DTX displacement, rat brain membranes.
For data set [40] the target is unchanged.
For data set [41], the target named is T3, Kv1.3 potassium channel of human T lymphocytes (human, UniProt P22001). The data set is described as follows: 125I-ChTX displacement, Jurkat T lymphocytes.
The target in data set [42] is T3, Kv1.3 potassium channel of human T …. Nature of the data set: 125I-ChTX displacement, Jurkat T lymphocytes. The source holds these as a separate data set.

Where “and” joins values, the source holds several entries; their conditions need not be identical. Equal entries are not always repeated. Where two headings read alike, the source gives them in different places. Bridges are numbered along the chain shown (N, C = ends). Where no end group is shown, it is not given here.

Usually Kd stands for a measure of binding affinity in units of concentration. For orientation: IC50 means the concentration needed to halve the response being measured.

Chain of Kv1.3 potassium channels in Jurkat T lymphocytes (P22001 whole entry): as the sequence (P22001 whole entry) above
Chain of Kv1.5 (P22460 whole entry): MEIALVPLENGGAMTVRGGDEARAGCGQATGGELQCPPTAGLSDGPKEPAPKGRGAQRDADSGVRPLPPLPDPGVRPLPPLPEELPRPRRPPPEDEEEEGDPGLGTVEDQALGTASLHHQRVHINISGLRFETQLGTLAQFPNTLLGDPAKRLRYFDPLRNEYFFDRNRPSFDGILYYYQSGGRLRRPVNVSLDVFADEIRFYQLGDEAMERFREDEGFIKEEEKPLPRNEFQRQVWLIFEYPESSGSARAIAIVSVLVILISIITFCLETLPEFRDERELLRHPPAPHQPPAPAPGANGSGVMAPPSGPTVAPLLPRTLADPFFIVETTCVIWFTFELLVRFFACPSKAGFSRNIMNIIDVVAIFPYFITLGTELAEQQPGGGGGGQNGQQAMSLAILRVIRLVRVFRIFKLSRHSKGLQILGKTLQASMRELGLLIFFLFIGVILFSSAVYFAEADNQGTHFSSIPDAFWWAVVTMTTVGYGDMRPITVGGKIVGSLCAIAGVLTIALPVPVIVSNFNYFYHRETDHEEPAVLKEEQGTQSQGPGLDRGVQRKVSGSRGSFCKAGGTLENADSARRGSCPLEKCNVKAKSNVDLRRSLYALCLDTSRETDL
Chain of Kv3.1 (P15388 whole entry): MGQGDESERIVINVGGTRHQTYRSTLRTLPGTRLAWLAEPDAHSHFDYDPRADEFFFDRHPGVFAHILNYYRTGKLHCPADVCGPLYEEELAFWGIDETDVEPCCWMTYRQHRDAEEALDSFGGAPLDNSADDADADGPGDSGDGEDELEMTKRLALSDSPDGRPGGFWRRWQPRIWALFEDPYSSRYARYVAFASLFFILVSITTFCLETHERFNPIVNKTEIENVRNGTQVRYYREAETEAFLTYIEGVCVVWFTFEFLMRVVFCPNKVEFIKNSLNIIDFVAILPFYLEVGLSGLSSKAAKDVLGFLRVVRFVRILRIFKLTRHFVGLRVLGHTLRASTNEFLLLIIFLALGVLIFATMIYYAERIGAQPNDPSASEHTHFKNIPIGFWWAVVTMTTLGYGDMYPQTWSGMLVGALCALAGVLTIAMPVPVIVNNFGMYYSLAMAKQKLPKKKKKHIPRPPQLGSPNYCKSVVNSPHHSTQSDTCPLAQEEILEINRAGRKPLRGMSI
Chain of IKCa (hKCa4) (O15554 whole entry): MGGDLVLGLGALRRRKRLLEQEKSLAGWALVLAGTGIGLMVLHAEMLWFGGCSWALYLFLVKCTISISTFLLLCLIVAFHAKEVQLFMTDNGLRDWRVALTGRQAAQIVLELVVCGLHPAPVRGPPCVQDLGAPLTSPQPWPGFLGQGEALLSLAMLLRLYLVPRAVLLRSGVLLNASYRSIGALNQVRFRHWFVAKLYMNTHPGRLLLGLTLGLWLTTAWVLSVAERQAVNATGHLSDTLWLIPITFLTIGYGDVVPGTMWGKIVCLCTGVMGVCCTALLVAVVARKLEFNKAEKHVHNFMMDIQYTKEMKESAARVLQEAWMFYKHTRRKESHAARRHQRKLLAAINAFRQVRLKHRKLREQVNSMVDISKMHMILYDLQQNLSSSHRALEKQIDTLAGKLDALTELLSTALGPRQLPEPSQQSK

In the case of ShK-K22DAP (peptide), the loss of potency against Kv1.1 with cloned Kv1.1 channel [1] is over 100 fold. The Kd is 10 nM in data set [2]; 5 nM with cloned Kv1.2 channel [3]; over 100 nM in the data set with cloned Kv1.5 channel [5]; 39 nM in the data set with cloned Kv1.2 channel [6]; 0.023 nM in data set [7]; 3 nM with cloned Kv1.1 channel [8]. The same molecule returned a Kd in the data set with cloned Kv3.1 channel [9] of over 100 nM. In data set [4], the free energy difference of binding turned out to be 2.23 kcal/mol. In data set [10], the half-blocking dose for Kv1.3 was determined as 28 pM. Besides, the potency on Kv1.1 against its potency on Kv1.3 in the data set with cloned Kv1.1 channel [11] came out at 40 fold. The molecule further had a block of Kv1.3 current, whole-cell patch clamp (IC50) in [12] of 30 pM. The same molecule displayed a block of Kv1.1 current, whole-cell patch clamp with cloned Kv1.1 channel [13] of 30 fold.
On to `CC[C@H](C)[C@@H]1NC(=O)[C@@H](NC(=O)[C@H](CO)NC(=O)[C@@H](N)CCCNC(=N)N)CSSC[C@@H](C(=O)O)NC(=O)[C@H]([C@@H](C)O)NC(=O)CNC(=O)[C@@H]2CSSC[C@@H]3NC(=O)[C@H](CCC(N)=O)NC(=O)[C@H](Cc4ccccc4)NC(=O)[C@H](C)NC(=O)[C@H]([C@@H](C)O)NC(=O)[C@H](CSSC[C@H](NC(=O)[C@H](Cc4ccccc4)NC(=O)[C@H](CO)NC(=O)[C@H](CC(C)C)NC(=O)[C@H](CCCNC(=N)N)NC(=O)[C@H](Cc4ccc(O)cc4)NC(=O)[C@H](CCCCN)NC(=O)[C@H](CCSC)NC(=O)[C@H](CO)NC(=O)[C@H](Cc4cnc[nH]4)NC(=O)[C@H](CCCCN)NC3=O)C(=O)N[C@@H](CCCNC(=N)N)C(=O)N[C@@H](CCCCN)C(=O)N[C@@H]([C@@H](C)O)C(=O)N2)NC(=O)[C@H](CCCNC(=N)N)NC(=O)[C@H](CO)NC(=O)[C@H](CCCCN)NC(=O)[C@@H]2CCCN2C(=O)[C@H]([C@@H](C)CC)NC(=O)[C@H]([C@@H](C)O)NC(=O)[C@H](CC(=O)O)NC1=O` [ShK], for which, on Kv1.5, the “sensitivity of Kv1.5, in words” value is recorded as “resistant to the peptide”. Further, the “Hill coefficient, [125I]-ChTX binding” value in [14] came to 0.89±0.17. The “Hill coefficient, Kv1.3 block” value on Kv1.3 [15] is recorded as “close to unity”. The same molecule had a ΔF in data set [16] of 0.0. Besides, the 50% inhibitory concentration (IC50) in data set [16] (read-out: IC50 Rat Brain 125I-CTX) was found to be 8 nM. The “resistance to proteolysis by porcine pepsin A, pancreatic elastase and subtilisin” value in data set [17] ([…], 30° C., pH 3.0 (pepsin A), pH 6.5 (elastase, subtilisin)) was “completely resistant to proteolysis”. For the same molecule, the “cleavage by trypsin-chymotrypsin mixture or thermolysin” value in data set [17] (pH 6.5) is recorded as “readily cleaved”. In data set [18], the “other closely related channels less sensitive than Kv1.3” value is over 100 fold. Besides, the “washout from the receptor” value on Kv1.3 [19] was “binds almost irreversibly”. For the same molecule, the “Kv1.2 less sensitive than Kv1.3” value at Kv1.2 stood at 100 fold. In addition, the “hKCa4 less sensitive than Kv1.3” value at IKCa (hKCa4) was determined as 100 fold. At Kv3.1, the “sensitivity of Kv3.1, in words” value is listed as “resistant to the peptide”.
For the molecule “ShK toxin (synthetic, wild type) (peptide)”, the Kd is 0.6 nM and 0.3 nM in data set [20]; 0.011 nM in data set [21]; 0.7 nM in data set [22]; 0.01 nM in data set [23]; 0.01 nM with cloned Kv1.1 channel [24]; over 1000 nM with cloned Kv1.5 channel [25]. Also, the Kd in the data set with cloned Kv3.1 channel [26] is over 1000 nM; in [27], 28 nM; with cloned Kv1.2 channel [30], 9 nM; in data set [31], 0.012 nM; in [32], 0.1 nM; in data set [36] it was 0.6 nM. Moreover, the equilibrium dissociation constant (Kd) in the data set with Kv1.3 D386K came out at 1.8 nM; in the data set with Kv1.3 H404Y it was 4 nM; with Kv1.3 D386N, 0.4 nM; in the data set with Kv1.3 H404T, 0.3 nM; in the data set with Kv1.3 H404L, 3.2 nM; with Kv1.3 G380E it was 0.6 nM. For the same molecule, the free energy difference of binding in data set [28] and in data set [35] was 0 kcal/mol each time. Further, in [29], the half-maximal inhibitory concentration (IC50) stood at 8 nM. The molecule further displayed a block of Kv1.2 current, whole-cell patch clamp with cloned Kv1.2 channel [33] of 100 fold. For the same molecule, in data set [34], the block of Kv1.3 current, whole-cell patch clamp (IC50) stood at 12 pM.
Turning to `CCCC[C@@H]1NC(=O)[C@H](CCSC)NC(=O)[C@H](CO)NC(=O)[C@H](Cc2c[nH]cn2)NC(=O)[C@H](CCCCN)NC(=O)[C@@H]2CSSC[C@@H]3NC(=O)[C@H]([C@@H](C)O)NC(=O)[C@H](CCCCN)NC(=O)[C@H](CCCNC(=N)N)NC(=O)[C@H](CSSC[C@H](NC(=O)[C@H](CCCNC(=N)N)NC(=O)[C@H](CO)NC(=O)[C@H](CCCCN)NC(=O)[C@@H]4CCCN4C(=O)[C@H]([C@@H](C)CC)NC(=O)[C@H]([C@@H](C)O)NC(=O)[C@H](CC(=O)O)NC(=O)[C@H]([C@@H](C)CC)NC(=O)[C@@H](NC(=O)[C@H](CO)NC(=O)[C@@H](N)CCCNC(=N)N)CSSC[C@@H](C(=O)O)NC(=O)[C@H]([C@@H](C)O)NC(=O)CNC3=O)C(=O)N[C@@H]([C@@H](C)O)C(=O)N[C@@H](C)C(=O)N[C@@H](Cc3ccccc3)C(=O)N[C@@H](CCC(N)=O)C(=O)N2)NC(=O)[C@H](Cc2ccccc2)NC(=O)[C@H](CO)NC(=O)[C@H](CC(C)C)NC(=O)[C@H](CCCNC(=N)N)NC(=O)[C@H](Cc2ccc(O)cc2)NC1=O` [K22Nle], in the data set on Kv1.3(D386→K), the “ΔΔG (coupling energy), mutant cycle” value stood at 0.053 kcal/mol. In [16], the “Equipotent Molar Ration (Analog IC50 /ShK IC50) Rat brain” value is over 250, the “IC50 Ratio” value is over 250 and the ΔF is recorded as over 3.23. Moreover, in data set [37], the “Equipotent Molar Ration (Analog IC50 /ShK IC50) Lymphocyte” value is over 23 and the “reduction of affinity (IC50) for Kv1.3 relative to ShK toxin” value is on record as “more than 23 fold”.

B1: N-alpha-acetyl ShK toxin (peptide)
peptide: Ac-RSCIDTIPKSRCTAFQCKHSMKYRLSFCRKTCGTC
modifications: ends and bridges not checked
On to B1, for which the “IC50 ratio (analog IC50/ShK IC50)” value in data set [38] and in [39] was 1 ratio throughout.

B2: ShK analog 106, Lactam Bridge (K14 -D18) (peptide)
peptide: RSCIDTIPKSRCTKFQCDHSMKYRLSFCRKTCGTC
modifications: lactam 14-18; ends not checked
For the molecule B2, the “IC50 ratio (analog IC50/ShK IC50)” value in [40] was 1.63 ratio.

B3: ShK toxin (synthetic, wild type) (peptide)
peptide: RSCIDTIPKSRCTAFQCKHSMKYRLSFCRKTCGTC
For B3, the IC50 in data set [41] worked out at 0.032 nM; in data set [42], 0.04 nM.
